Source: patent publication US20150139990A1 (DAINIPPON SUMITOMO PHARMA, published 2015)
Substitutions are numbered along the chain they refer to. In names and notes the source's numbering stands.

Tests used:
Assay in all cases: ELISA
human CD81 mutant L165A = molecular target: T1, human CD81 mutant L165A (human, UniProt P60033 1-236, limits assumed)
T1 construct: as m30; not shown: C-terminal V5 and 6xHis tags
T1 sequence: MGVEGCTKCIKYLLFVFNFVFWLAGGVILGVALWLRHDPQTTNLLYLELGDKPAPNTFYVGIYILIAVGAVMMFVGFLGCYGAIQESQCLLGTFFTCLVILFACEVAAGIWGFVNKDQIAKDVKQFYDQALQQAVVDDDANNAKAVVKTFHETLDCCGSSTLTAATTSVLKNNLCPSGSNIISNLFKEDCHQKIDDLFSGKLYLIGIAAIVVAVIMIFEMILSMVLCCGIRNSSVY
Procedure, shortened: (§1)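 Human CD81 point mutants in pcDNA-DEST40 with C-terminal V5 and 6×His tags were expressed transiently in CHO cells for 48 hours. Membranes were solubilised with 1% n-octylglucoside and loaded at 5 μg/100 μL/well on Ni-NTA His Sorb plates (3 hours, 4° C). Antibody binding (1 hour, room temperature) was detected with HRP anti-human IgG4, TMB and absorbance at 450 nm. Relative binding affinity is the percentage of wild-type CD81 binding, corrected for V5-tag expression.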

human CD81 mutant S168T = molecular target: T2, human CD81 mutant S168T (human, UniProt P60033 1-236, limits assumed)
T2 construct: as m30; not shown: C-terminal V5 and 6xHis tags
T2 sequence: T1 sequence with A165L, S168T
Procedure, shortened: as §1

human CD81 mutant V135L = molecular target: T3, human CD81 mutant V135L (human, UniProt P60033 1-236, limits assumed)
T3 construct: as m30; not shown: C-terminal V5 and 6xHis tags
T3 sequence: T1 sequence with V135L, A165L
Procedure, shortened: as §1

human CD81 mutant A164V = molecular target: T4, human CD81 mutant A164V (human, UniProt P60033 1-236, limits assumed)
T4 construct: as m30; not shown: C-terminal V5 and 6xHis tags
T4 sequence: T1 sequence with A164V, A165L
Procedure, shortened: as §1

human CD81 mutant V169A = molecular target: T5, human CD81 mutant V169A (human, UniProt P60033 1-236, limits assumed)
T5 construct: as m30; not shown: C-terminal V5 and 6xHis tags
T5 sequence: T1 sequence with A165L, V169A
Procedure, shortened: as §1

human CD81 mutant D137A = molecular target: T6, human CD81 mutant D137A (human, UniProt P60033 1-236, limits assumed)
T6 construct: as m30; not shown: C-terminal V5 and 6xHis tags
T6 sequence: T1 sequence with D137A, A165L
Procedure, shortened: as §1

human CD81 mutant V135A = molecular target: T7, human CD81 mutant V135A (human, UniProt P60033 1-236, limits assumed)
T7 construct: as m30; not shown: C-terminal V5 and 6xHis tags
T7 sequence: T1 sequence with V135A, A165L
Procedure, shortened: as §1

human CD81 mutant A164T = molecular target: T8, human CD81 mutant A164T (human, UniProt P60033 1-236, limits assumed)
T8 construct: as m30; not shown: C-terminal V5 and 6xHis tags
T8 sequence: T1 sequence with A164T, A165L
Procedure, shortened: as §1

human CD81 mutant G158A = molecular target: T9, human CD81 mutant G158A (human, UniProt P60033 1-236, limits assumed)
T9 construct: as m30; not shown: C-terminal V5 and 6xHis tags
T9 sequence: T1 sequence with G158A, A165L
Procedure, shortened: as §1

Measured: relative binding affinity

B1: 002-A07 IgG4 antibody (antibody)
heavy: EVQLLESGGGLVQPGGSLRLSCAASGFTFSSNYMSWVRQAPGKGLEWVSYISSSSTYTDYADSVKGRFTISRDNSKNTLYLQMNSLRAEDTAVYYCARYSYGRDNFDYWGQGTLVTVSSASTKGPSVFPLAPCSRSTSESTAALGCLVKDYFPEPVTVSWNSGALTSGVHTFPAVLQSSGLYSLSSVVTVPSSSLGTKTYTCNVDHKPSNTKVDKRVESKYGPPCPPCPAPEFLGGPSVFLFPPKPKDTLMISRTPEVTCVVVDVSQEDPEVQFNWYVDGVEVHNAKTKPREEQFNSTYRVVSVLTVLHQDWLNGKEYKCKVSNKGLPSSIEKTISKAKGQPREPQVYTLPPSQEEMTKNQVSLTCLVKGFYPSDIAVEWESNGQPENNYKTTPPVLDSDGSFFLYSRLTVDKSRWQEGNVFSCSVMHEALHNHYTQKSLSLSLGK
light: QSVLTQPPSASGTPGQRVTISCTGSTSNIGAGYDTHWYQQLPGTAPKLLIYGNSNRPSGVPDRFSGSKSGTSASLAISGLRSEDEADYYCQSYDTNLSVWVFGGGTKLTVLGQPKAAPSVTLFPPSSEELQANKATLVCLISDFYPGAVTVAWKADSSPVKAGVETTTPSKQSNNKYAASSYLSLTPEQWKSHRSYSCQVTHEGSTVEKTVAPTECS
notes: human IgG4 S228P, lambda light chain
< 20%: all assays above
